Measurements: the supplement of paper PMC9170038

Tested on: MS2 coat protein
Test: apparent KD of MS2 coat protein; higher = weaker reporter binding
Details: Eterna round: R107
Summary of the method: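 Normalised binding curves from single clusters were fitted, and the median fit for each design is given as apparent KD. The clusters held designed RNA switches transcribed on-chip from Illumina sequencing clusters. These were titrated with SNAP-549-labelled MS2 coat protein (twofold steps from 0.7 or 1.5 nM to 3 µM, 0.8–1.5 h to 10–20 min per step) in 100 mM Tris-HCl pH 7.5, 80 mM KCl, 4 mM MgCl2, without or with constant ligand.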

[1] = input ligand: theophylline 20 uM
[2] = input ligand: theophylline 2 mM
[3] = input ligand: tryptophan 2.4 mM

Row | Sequence | apparent KD of MS2 coat protein (input ligand: arginine 13.2 mM) | apparent KD of MS2 coat protein (input ligand: none) | apparent KD of MS2 coat protein [1] | apparent KD of MS2 coat protein [2] | apparent KD of MS2 coat protein [3]
1 | AAGACGGUCGGAAGGAGCGGUACAUGAGGAUCACCCAUGUACCUCUGGGCAUCCGUAGUGUGCCAGGUAGGUCGCCGAUUGCGGG [Esorbevege] | 0.0127 µM | 0.0117 µM | 0.0233 µM | 0.0135 µM | 0.0121 µM
2 | CGUAAACAUGAGGAUCACCCAUGUGAUGAUACCAGCACGAUUAACUGCCCUUGGCAGCAUGUAUUGUACGACUUAUUGCCCAUCG [theeternabot_sameState_MS2_Theo_A_15] | 0.0154 µM |  | 0.0233 µM |  | 0.0135 µM
3 | CCGUUCUCUGCGGCCGCCACUCAAGGAGCUACAUAGCUCCUAGACAUGAGGAUCACCCAUGUCGCGAGGACCGGGUAGAUUCUCC [Same State Typptophan B GF9] | 0.0344 µM |  | 0.0636 µM | 0.0642 µM | 
4 | GGAUUACGAAAGUAGUCCUCAAGUUCGAGACGAGGACCGGUACGGCCGCCACUCGAACAUGAGGAUCACCCAUGUAGCGAAAGCU [Tryptophan A 22] | 0.0866 µM | 0.195 µM | 0.382 µM | 0.425 µM | 0.181 µM
5 | AAUAAUAGGUGAUCUUGUGUCGUACCGUAACGAGGACCGGUACGGCCGCCACUCGAACAUGAGGAUCACCCAUGUAUGUAUGAUA [whbob_SS_trypto A_f7] | 0.0578 µM |  | 0.301 µM | 0.497 µM | 
6 | UGUUUGGUGCGCGAGUGUUGGAUGAUUGAUACCAGUGAAGAAGAGCGCCCUUGGCAGCGAAUCCUAACAUGAGGAUCACCCAUGU [5.V] | 0.0393 µM |  | 0.0577 µM |  | 0.0514 µM
7 | AAUAAUAGGUGAUCCUGACGAGUGGCAUAACGAGGACCGGUACGGCCGCCACUCGAACAUGAGGAUCACCCAUGUAGCCACUCGA [M'-T'-T-MS2-T'' - Design 5.b] | 0.032 µM |  | 0.327 µM | 0.685 µM | 
8 | UUAGUAACGACGGCCGCCACUGGAUAUGAACAUGAGGAUCACCCAUGUAGAGAUCCUAGAAUAAACAGGACCGGGUCUGAUAAUA [Exclusion Tryptophane B GF 2] | 0.0179 µM |  | 0.0216 µM | 0.0173 µM | 
9 | AGACAUGAGGAUCACCCAUGUGAAGUGGAUACCAGCCGCAGCGAUGGCCCUUGGCAGCCAGCUUUGUGUCGAUACAUCCGCACUU [theeternabot_exclusion_MS2_Theo_A_2] | 0.0169 µM |  | 0.0229 µM |  | 0.0181 µM
10 | UUAGCACAUGAGGAUCACCCAUGUCUCGAUACCAGAUAAGUUCCGAUCCCUUGGCAGCGACAAGCUUGCAAACUGCGACUAUUCU [theeternabot_sameState_MS2_Theo_A_42] | 0.0222 µM |  | 0.0322 µM |  | 0.0248 µM
11 | ACAUGAGGCUCACCCAUGUGUAGUGGGUGGCGAGGACCGGUACGGCCGCCACUCGGCAACAUGAGGAUCACCCAUGUAAGGCCCU [RNA Blob] | 0.0396 µM | 0.133 µM | 0.134 µM | 0.148 µM | 0.035 µM
12 | CGCAACCCUAAGGGAUUGUGGUUAUUAGAUACCAGUAUGAUGCAAUACCCUUGGCAGCUAAUACAUGAGGAUCACCCAUGUUGCG [Th A Ex t2] | 0.0136 µM |  | 0.0202 µM |  | 0.0168 µM
13 | GAUGAUAUUGCAGAUACCAGACACAUGAGGAUCACCCAUGUGUCCUCGCCAGCGGCAUGUGUCCCUUGGCAGCUGCGAUAUCAUC [Colombia] | 0.0111 µM | 0.0111 µM | 0.0177 µM | 0.0412 µM | 0.0121 µM
14 | UAUCGUCAGACGGCCGCCACUAGAACAUGAGGAUCACCCAUGUAAGUGGCUGGUUCAUGGGUGUCUAGGACCGGGUCUGACGAAU [(Trp1)-(Ms2)-(T)'-(M)'-(Trp2)_Design20] | 0.0148 µM |  | 0.0212 µM | 0.0176 µM | 
15 | CCAUAGCUAGGAAGGAGCGCAUACUUCACAUGAGGAUCACCCAUGUCGAGACGUGAGUCAGUGCAGGUAGGUCGCCUAGCUAUGG [Same State - Arginine B (Freestyle 29)] | 0.0181 µM | 0.0186 µM | 0.0242 µM | 0.0255 µM | 0.0206 µM
16 | UAAUAAAUAAAUCCAAGGUGUAGGUCAGAUACCAGCCAGAUAACUGGCCCUUGGCAGCUGAAUAAACCUGAGGAACACCCAGGUA [TheoAS 24 #OpenEnded #MS2Late #AlternativeMS2] | 0.0267 µM | 0.0316 µM | 0.0495 µM | 0.197 µM | 0.0273 µM
17 | UAUAUAUAUAGUGAUACCAGCAGAGAAAACGUUUAUCCUAACAUGAGGAUCACCCAUGUAUGCCCUUGGCAGCGUUAUAUAUAUA [8.E] | 0.0212 µM |  | 0.0291 µM |  | 0.0219 µM
18 | GGCCGGUGCGCUUUGAAGCGACGGCGUGAUACCAGAUGUAAGAGCGUCCCUUGGCAGCACGUUUACAUGAGGAUCACCCAUGUCU [Zaveusxe] | 0.0532 µM |  | 0.256 µM |  | 0.22 µM
19 | CUCCCGUGGUCGGCCGCCACUGGAGGCCUUGCGCGACAUGAGGAUCACCCAUGUGUGCCCGGCGUCAGGACCGGGAUCGCGUGAG [#1 Same State - Tryptophan B Attempt #12 (HarryS)] | 0.0172 µM | 0.0161 µM | 0.0187 µM | 0.0197 µM | 0.0138 µM

Row | Sequence | apparent KD of MS2 coat protein (input ligand: arginine 13.2 mM) | apparent KD of MS2 coat protein (input ligand: none) | apparent KD of MS2 coat protein [1] | apparent KD of MS2 coat protein [2] | apparent KD of MS2 coat protein [3]
20 | GGGUACAUCGCGGCCGCCACUCGUGUAAAUACAUGAGGAUCACCCAUGUCGAUGGAGACAUCGGCGAGGACCGGGUGAUGUACCG | 0.0431 µM | 0.0475 µM | 0.0542 µM | 0.0535 µM | 0.0115 µM
21 | AGUCUCAGUGGAAGGAGCGUCGCGACUGCUACAUGAGGAUCACCCAUGUCGCCUUGAGCGCGACAGGUAGGUCGCCACGGUAGGC [Erraraorle] | 0.0141 µM | 0.0175 µM | 0.0296 µM | 0.0208 µM | 0.0182 µM
22 | GGUAUGUAUUCGGAAACGAAUGCAUACCAACGAGGACCGGUACGGCCGCCACUCGGGCCGUGAUCACAUGAGGAUCACCCAUGUA [Ex Tryptophan A 5] | 0.0298 µM |  | 0.0492 µM | 0.0423 µM | 
23 | AUUCAUGGAAACAUGACAUACAUAUCCGGUCGAGGACCGGUACGGCCGCCACUCGUUUGGAGGCACAUGAGGAUCACCCAUGUUA [SS Tryp A #8] | 0.0213 µM |  | 0.0344 µM | 0.0259 µM | 
24 | AUAUUAAAGAGUGAUACCAGACUACAUGAGGAUCACCCAUGUUACAUUUAAAUAUCAUUUGUCCCUUGGCAGCACAUUAAGUACA [JR_Nu_ExcTheophyB_Sub022] | 0.0209 µM |  | 0.0221 µM |  | 0.0175 µM
25 | UGACAUUGCUCAGAUACCAGACAUGAGGAUCACCCAUGUGCCAACGUACAAAUAAUAAAUGUCCCUUGGCAGCUGAGCAAUGUCU [TheoBX 15 #MS2Left #Theo2] | 0.0162 µM |  | 0.0199 µM |  | 0.0114 µM
26 | AGCACUGUGACGGCCGCCACUACAUAUAGGGUGGUCAGGCCCAUAAUACAUGAGGAUCACCCAUGUAGGACCGGGUCUCAGUGCA [Omei Trp Exc B A v12] | 0.0117 µM |  | 0.0254 µM | 0.0183 µM | 
27 | AUAAUAUAGACGGCCGCCACUAUAAACAUGAGGAACAUGAGGAUCACCCAUGUAUGAGGAUCACCUAGGACCGGGUCAUAUAUUA [AstrosExyTryB#2] | 0.0393 µM |  | 0.0798 µM | 0.0624 µM | 
28 | GAGCUGAUGUAGAGCGAAUAUUCGAGAGAUACCAGUACAGAAAUGUACCCUUGGCAGCUCAACUUUACAUGAGGAUCACCCAUGU [Ex Theophylline A 23] | 0.015 µM |  | 0.0156 µM |  | 0.0147 µM
29 | AUAGUCUUGAGUGAUACCAGACUACAUGAGGAUCACCCAUGUUUCUUUUGGUUAUCAUGUGUCCCUUGGCAGCACGCAUGUAUAG [JR_ExcTheophyB_Sub014] | 0.0175 µM |  | 0.028 µM |  | 0.0126 µM
30 | ACUAGUUGUGCAGAUACCAGACAUGAGGAUCACCCAUGUUUGGGAUCUAAUGAUCAUCUUGUCCCUUGGCAGCUGUACAUCUAGA [Omei Theo B Exc v1] | 0.0271 µM |  | 0.0726 µM |  | 0.0555 µM
31 | UUGUUGUUUGGAAGGAGCGUGUAUGAUUAAGAACAUGAGGAUCACCCAUGUUGUAGGGUAGCACAGGUAGGUCGCCGGGUGGUGG [11.V] | 0.0348 µM | 0.0251 µM | 0.0368 µM | 0.0312 µM | 0.0211 µM
32 | ACGCUGCAUAGGAAAACUAUGUAGCGAAAUCGAGGACCGGUACGGCCGCCACUCGUCCUCAACAUGAGGAUCACCCAUGUAAUAA [Mat - Exclusion - Trytophan A - D8] | 0.0208 µM |  | 0.0237 µM | 0.0228 µM | 
33 | UGUCAUGGAAACAUGACAGGUUCUACCGGUCGAGGACCGGUACGGCCGCCACUCGAUUGGUGGCACAUGAGGAUCACCCAUGUUA [SS Tryp A #15] | 0.0241 µM |  | 0.0396 µM | 0.0303 µM | 
34 | UGUAUGGACUGAAGGAGCGCCUCAAAUAACAUGAGGAUCACCCAUGUGGACAAAGUCCUUGGGCAGGUAGGUCGCAGUCCAUACU [ArgBX 5 #StaticStem #MS2Late] | 0.0491 µM | 0.0724 µM | 0.0829 µM | 0.0923 µM | 0.0822 µM
35 | GCGUGUUAUAGUCAUCGUGAGCGUCCAUCCCGAGGACCGGUACGGCCGCCACUCGCCACAGGACAUGAGGAUCACCCAUGUUAUG [theeternabot_exclusion_MS2_Trp_A_3] | 0.00962 µM |  | 0.0168 µM | 0.0138 µM | 
36 | CUUGUGCUGACGGCCGCCACUUUAUGGGAGUCCUGUUCUGAUUGAUACAUGAGGAUCACCCAUGUAAGGACCGGGUCGUACCAUA [theeternabot_exclusion_MS2_Trp_B_22] | 0.0227 µM |  | 0.0274 µM | 0.0227 µM | 
37 | AUUCCAUUGGUGCAGUUGUUAAAUGGCGAUACCAGCGUGGAAACACGCCCUUGGCAGCGCCAAAACAUGAGGAUCACCCAUGUUA [Havirov] | 0.0321 µM |  | 0.0705 µM |  | 0.0591 µM
